The values that follow come from PMC2748081 (Reproductive Biology and Endocrinology : RB&E, 2009).

In the assay the target is T1, heat shock cognate protein 70 (Hsc70), recombinant, full length (mouse, UniProt P63017 1-646).
T1 construct: Hsc70 (heat shock cognate protein 70), cDNA by RT-PCR from total RNA of mouse TG cells; primers 'Hsc70 full length' from the start codon (MSKGPAV) to the stop codon (TIEEVD); some vector residues may remain; also called Full Hsc70; recombinant Hsc70; source: E. coli DH5α, pCold TF vector, purified (Ni-NTA), tag cleaved with human rhinovirus 3C protease
Put plainly: pull-down; purified recombinant Hsc70 and each ERM protein (20 μg/ml) mixed in PBS, 37°C 2 h, precipitated with anti-Hsc70 antibody on protein G agarose beads or beads only; detection by immunoblotting. To be noted: both partners purified. In general terms: A western blot detects proteins with antibodies after separation by electrophoresis.

T1 sequence (P63017 whole entry): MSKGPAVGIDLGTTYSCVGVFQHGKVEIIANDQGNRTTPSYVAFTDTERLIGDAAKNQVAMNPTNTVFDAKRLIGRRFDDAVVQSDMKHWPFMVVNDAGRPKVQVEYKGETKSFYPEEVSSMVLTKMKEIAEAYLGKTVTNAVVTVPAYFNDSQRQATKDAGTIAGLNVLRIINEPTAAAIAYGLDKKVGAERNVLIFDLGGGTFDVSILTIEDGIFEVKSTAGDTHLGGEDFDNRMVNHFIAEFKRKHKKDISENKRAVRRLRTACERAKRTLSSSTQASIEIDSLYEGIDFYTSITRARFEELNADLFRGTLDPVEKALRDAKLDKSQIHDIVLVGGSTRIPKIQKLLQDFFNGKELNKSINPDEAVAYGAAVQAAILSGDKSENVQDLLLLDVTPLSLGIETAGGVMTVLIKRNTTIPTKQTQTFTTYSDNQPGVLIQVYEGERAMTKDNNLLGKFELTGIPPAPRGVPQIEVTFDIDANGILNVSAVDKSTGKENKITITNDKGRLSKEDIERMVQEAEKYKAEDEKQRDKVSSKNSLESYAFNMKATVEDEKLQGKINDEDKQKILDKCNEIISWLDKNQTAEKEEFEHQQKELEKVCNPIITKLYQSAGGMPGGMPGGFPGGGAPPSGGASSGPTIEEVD

B1: moesin, recombinant (natural protein, mouse, UniProt P26041 1-577, looked up)
chain: MPKTISVRVTTMDAELEFAIQPNTTGKQLFDQVVKTIGLREVWFFGLQYQDTKAFSTWLKLNKKVTAQDVRKESPLLFKFRAKFYPEDVSEELIQDITQRLFFLQVKEGILNDDIYCPPETAVLLASYAVQSKYGDFNKEVHKSGYLAGDKLLPQRVLEQHKLNKDQWEERIQVWHEEHRGMLREDAVLEYLKIAQDLEMYGVNYFSIKNKKGSELWLGVDALGLNIYEQNDRLTPKIGFPWSEIRNISFNDKKFVIKPIDKKAPDFVFYAPRLRINKRILALCMGNHELYMRRRKPDTIEVQQMKAQAREEKHQKQMERALLENEKKKRELAEKEKEKIEREKEELMEKLKQIEEQTKKAQQELEEQTRRALELEQERKRAQSEAEKLAKERQEAEEAKEALLQASRDQKKTQEQLASEMAELTARISQLEMARKKKESEAVEWQQKAQMVQEDLEKTRAELKTAMSTPHVAEPAENEHDEQDENGAEASAELRADAMAKDRSEEERTTEAEKNERVQKHLKALTSELANARDESKKTANDMIHAENMRLGRDKYKTLRQIRQGNTKQRIDEFESM
notes: moesin, cDNA by RT-PCR from total RNA of mouse TG cells as the methods say; primers from the start codon (MPKTISVR) to the stop codon (IDEFESM); also called ERM protein; source: E. coli DH5α, pCold TF vector, purified (Ni-NTA), tag cleaved with human rhinovirus 3C protease
With B1, the binding result is “binds”.

B2: ezrin, recombinant (natural protein, mouse, UniProt P26040 1-586, looked up)
chain: MPKPINVRVTTMDAELEFAIQPNTTGKQLFDQVVKTIGLREVWYFGLQYVDNKGFPTWLKLDKKVSAQEVRKENPVQFKFRAKFYPEDVAEELIQDITQKLFFLQVKDGILSDEIYCPPETAVLLGSYAVQAKFGDYNKEMHKSGYLSSERLIPQRVMDQHKLSRDQWEDRIQVWHAEHRGMLKDSAMLEYLKIAQDLEMYGINYFEIKNKKGTDLWLGVDALGLNIYEKDDKLTPKIGFPWSEIRNISFNDKKFVIKPIDKKAPDFVFYAPRLRINKRILQLCMGNHELYMRRRKPDTIEVQQMKAQAREEKHQKQLERQQLETEKKRRETVEREKEQMLREKEELMLRLQDYEQKTKRAEKELSEQIEKALQLEEERRRAQEEAERLEADRMAALRAKEELERQAQDQIKSQEQLAAELAEYTAKIALLEEARRRKEDEVEEWQHRAKEAQDDLVKTKEELHLVMTAPPPPPPPVYEPVNYHVQEGLQDEGAEPMGYSAELSSEGILDDRNEEKRITEAEKNERVQRQLLTLSNELSQARDENKRTHNDIIHNENMRQGRDKYKTLRQIRQGNTKQRIDEFEAM
notes: ezrin, cDNA by RT-PCR from total RNA of mouse TG cells; primers from the start codon (MPKPINVR) to the stop codon (IDEFEAM); also called ERM protein; source: E. coli DH5α, pCold TF vector, purified (Ni-NTA), tag cleaved with human rhinovirus 3C protease
With B2, the binding result is recorded as “binds”.

B3: radixin, recombinant (natural protein, mouse, UniProt P26043 1-583, looked up)
chain: MPKPINVRVTTMDAELEFAIQPNTTGKQLFDQVVKTVGLREVWFFGLQYVDSKGYSTWLKLNKKVTQQDVKKENPLQFKFRAKFFPEDVSEELIQEITQRLFFLQVKEAILNDEIYCPPETAVLLASYAVQAKYGDYNKEIHKPGYLANDRLLPQRVLEQHKLTKEQWEERIQNWHEEHRGMLREDSMMEYLKIAQDLEMYGVNYFEIKNKKGTELWLGVDALGLNIYEHDDKLTPKIGFPWSEIRNISFNDKKFVIKPIDKKAPDFVFYAPRLRINKRILALCMGNHELYMRRRKPDTIEVQQMKAQAREEKHQKQLERAQLENEKKKREIAEKEKERIEREKEELMERLRQIEEQTVKAQKELEEQTRKALELEQERQRAKEEAERLDRERRAAEEAKSAIAKQAADQMKNQEQLAAELAEFTAKIALLEEAKKKKEEEATEWQHKAFAAQEDLEKTKEELKTVMSAPPPPPPPPVIPPTENEHDEQDENSAEASAELSSEGVMNHRSEEERVTETQKNERVKKQLQALSSELAQARDETKKTQNDVLHAENVKAGRDKYKTLRQIRQGNTKQRIDEFEAM
notes: radixin, cDNA by RT-PCR from total RNA of mouse TG cells; primers from the start codon (MPKPINVR) to the stop codon (IDEFEAM); also called ERM protein
For B3, the binding result is “binds”.
